Measured values as given in publication PMC7308479.

Biological target: GST
Assay: AUC; sedimentation velocity, 40 μM GST, 25 mM HEPES pH 7.4, 500 mM NaCl, 4°C

Sequence of GST (P08515 2-218): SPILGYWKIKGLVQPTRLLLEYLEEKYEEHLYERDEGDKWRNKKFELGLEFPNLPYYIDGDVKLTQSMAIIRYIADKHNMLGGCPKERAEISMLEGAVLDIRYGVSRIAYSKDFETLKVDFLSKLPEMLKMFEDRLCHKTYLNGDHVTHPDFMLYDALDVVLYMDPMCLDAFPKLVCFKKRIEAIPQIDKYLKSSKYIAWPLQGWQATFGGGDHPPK

- stoichiometry N: 2
Substance: GST
